Measurements as given in patent US20240116985A1, “STAPLED PEPTIDES AND METHODS THEREOF” (priority 2020, published 2024).
Starred links: 1 amine or outer side, 2 acyl side, 3 side chain; linkers in the order of their positions; H or OH if unused. Positions of bridges follow the written chain, without caps; N, C: chain ends. Non-standard residues stand in square brackets, D forms with d. Primed or numbered codes have the meaning given here. No end group written: not given here. *: point of attachment. PyrS2″ = (S)-3-amino-1-((pent-4-en-1-yloxy)carbonyl)pyrrolidine-3-carboxylic acid (stapling residue), C=CCCCOC(=O)N1CC[C@@](N[*:1])(C(=O)[*:2])C1; B5(4) = 2,2-bis(4-pentenyl)glycine = 2-amino-2-(pent-4-en-1-yl)hept-6-enoic acid (stitching residue), C=CCCCC(CCCC=C)(N[*:1])C(=O)[*:2]; B5(5) = 2,2-bis(4-pentenyl)glycine, 2-amino-2-(pent-4-en-1-yl)hept-6-enoic acid (stitching residue), C=CCCCC(CCCC=C)(N[*:1])C(=O)[*:2]; TfeGA = (S)-2-amino-3-((carboxymethyl)(2,2,2-trifluoroethyl)amino)propanoic acid, O=C([C@H](CN(CC(=O)[*:3])CC(F)(F)F)N[*:1])[*:2]; PyrS2 = (S)-3-amino-1-((pent-4-en-1-yloxy)carbonyl)pyrrolidine-3-carboxylic acid, C=CCCCOC(=O)N1CC[C@@](N[*:1])(C(=O)[*:2])C1; B5 = 2-amino-2-(pent-4-en-1-yl)hept-6-enoic acid, C=CCCCC(CCCC=C)(N[*:1])C(=O)[*:2]; Phe(2-CF3) = N[C@@H](Cc1ccccc1C(F)(F)F)C(=O)O; Phe(2-Cl) = N[C@@H](Cc1ccccc1Cl)C(=O)O; 2Nal = N[C@@H](Cc1ccc2ccccc2c1)C(=O)O; Bta = N[C@@H](Cc1csc2ccccc12)C(=O)O; αAllylPro = C=CC[C@@]1(C(=O)O)CCCN1; tBuAla = CC(C)(C)C[C@H](N)C(=O)O; 2Thi = N[C@@H](Cc1cccs1)C(=O)O; 3Thi = N[C@@H](Cc1ccsc1)C(=O)O; S8 = C=CCCCCCC[C@](C)(N)C(=O)O; Thr(ol) = C[C@@H](O)[C@H](N)CO; Abu = CC[C@H](N)C(=O)O; Alaol = C[C@@H](CO)N*

How the values were obtained:
[1] = biological target: full-length beta-Catenin (Uniprot ID P35222) (Homo sapiens (Human)) (UniProt P35222); assay: FP competition: displacement of 5FAM-TCF4(10-53) from full-length beta-catenin
Target sequence in this assay (P35222 whole entry, one chain of several): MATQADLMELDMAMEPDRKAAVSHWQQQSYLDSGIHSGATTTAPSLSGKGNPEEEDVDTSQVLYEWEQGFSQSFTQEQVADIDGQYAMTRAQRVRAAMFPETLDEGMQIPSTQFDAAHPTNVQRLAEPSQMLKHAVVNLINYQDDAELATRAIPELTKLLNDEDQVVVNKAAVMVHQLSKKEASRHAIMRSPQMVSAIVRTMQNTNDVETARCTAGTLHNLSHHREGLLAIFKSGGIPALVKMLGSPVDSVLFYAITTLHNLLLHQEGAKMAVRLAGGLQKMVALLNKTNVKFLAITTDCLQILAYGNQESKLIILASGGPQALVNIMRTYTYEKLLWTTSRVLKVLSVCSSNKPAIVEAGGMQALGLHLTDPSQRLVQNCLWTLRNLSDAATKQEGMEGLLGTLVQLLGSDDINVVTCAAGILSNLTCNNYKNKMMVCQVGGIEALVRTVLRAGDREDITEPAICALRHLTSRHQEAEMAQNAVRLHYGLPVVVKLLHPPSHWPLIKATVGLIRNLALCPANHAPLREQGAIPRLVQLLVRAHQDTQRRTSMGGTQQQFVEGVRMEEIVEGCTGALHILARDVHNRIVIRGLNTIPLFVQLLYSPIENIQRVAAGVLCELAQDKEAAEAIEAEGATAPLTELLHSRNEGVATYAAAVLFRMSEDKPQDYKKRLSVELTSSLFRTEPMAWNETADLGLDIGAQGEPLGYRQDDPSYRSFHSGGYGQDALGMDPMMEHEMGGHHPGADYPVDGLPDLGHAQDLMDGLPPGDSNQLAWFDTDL

[2] = biological target: B-cat-Halo (beta-catenin HaloTag NanoBRET construct expressed in HEK293 cells) (UniProt P35222); assay: NanoBRET Abs IC50 in HEK293 cells; Bcat-Halo, TCF4-Luc as competitor
[3] = biological target: full-length beta-Catenin (Uniprot ID P35222) (Homo sapiens (Human)) (UniProt P35222); assay: fluorescence polarization competition; full-length beta-catenin, 5FAM-TCF4(10-53) probe as competitor
Target sequence in this assay (P35222 2-781 limits assumed): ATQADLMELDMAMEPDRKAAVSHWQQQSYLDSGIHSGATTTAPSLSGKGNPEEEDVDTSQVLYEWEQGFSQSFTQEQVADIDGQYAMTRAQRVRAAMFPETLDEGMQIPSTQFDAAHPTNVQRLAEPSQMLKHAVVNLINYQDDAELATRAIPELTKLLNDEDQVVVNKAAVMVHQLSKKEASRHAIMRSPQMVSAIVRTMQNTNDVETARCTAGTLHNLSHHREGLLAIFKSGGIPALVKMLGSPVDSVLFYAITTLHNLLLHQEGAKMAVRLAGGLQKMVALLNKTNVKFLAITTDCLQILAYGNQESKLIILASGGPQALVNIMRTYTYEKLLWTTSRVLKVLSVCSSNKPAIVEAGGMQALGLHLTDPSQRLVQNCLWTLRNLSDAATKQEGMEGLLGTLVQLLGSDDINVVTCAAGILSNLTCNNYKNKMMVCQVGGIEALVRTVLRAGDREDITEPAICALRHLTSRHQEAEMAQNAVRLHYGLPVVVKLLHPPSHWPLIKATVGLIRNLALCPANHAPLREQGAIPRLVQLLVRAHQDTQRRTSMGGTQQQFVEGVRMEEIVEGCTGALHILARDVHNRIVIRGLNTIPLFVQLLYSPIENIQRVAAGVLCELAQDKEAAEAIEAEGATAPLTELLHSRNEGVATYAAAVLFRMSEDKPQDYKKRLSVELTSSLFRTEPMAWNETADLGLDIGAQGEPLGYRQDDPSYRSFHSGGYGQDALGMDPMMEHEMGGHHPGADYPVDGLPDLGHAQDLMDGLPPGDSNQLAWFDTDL

Bcat-Halo [4] = biological target: Bcat-Halo (UniProt P35222); assay: NanoBRET absolute IC50, HEK293 cells, Bcat-Halo/TCF4-Luc engagement
[5] = biological target: full-length beta-Catenin (Uniprot ID P35222) (Homo sapiens (Human)) (UniProt P35222); assay: FP competition; full-length beta-catenin, competitor 5FAM-TCF4(10-53)
Target sequence in this assay (P35222 whole entry, one chain of several): as the sequence (P35222 whole entry, one chain of several) above

[6] = biological target: full-length beta-Catenin (Uniprot ID P35222) (Homo sapiens (Human)) (UniProt P35222); assay: FP competition, full-length beta-catenin, competitor probe 5FAM-TCF4 10-53
Target sequence in this assay (P35222 2-781 limits assumed): as the sequence (P35222 2-781 limits assumed) above

Bcat-Halo [7] = biological target: Bcat-Halo (UniProt P35222); assay: NanoBRET Abs IC50, HEK293 cells; B-cat-Halo/TCF4-Luc engagement, competitor TCF4-Luc
[8] = biological target: full-length beta-Catenin (Uniprot ID P35222) (Homo sapiens (Human)) (UniProt P35222); assay: fluorescence polarization competition; full-length beta-catenin with 5FAM-TCF4(10-53) probe as competitor
Target sequence in this assay (P35222 2-781 limits assumed): as above

[9] = biological target: full-length beta-Catenin (Uniprot ID P35222) (Homo sapiens (Human)) (UniProt P35222); assay: fluorescence polarization competition; displacement of 5FAM-TCF4(10-53) from full-length beta-catenin
Target sequence in this assay (P35222 whole entry, one chain of several): as the sequence (P35222 whole entry, one chain of several) above

Bcat-Halo [10] = biological target: Bcat-Halo (UniProt P35222); assay: NanoBRET Abs IC50 in HEK293 cells; Bcat-Halo, TCF4-Luc as competitor
[11] = biological target: full-length beta-Catenin (Uniprot ID P35222) (Homo sapiens (Human)) (UniProt P35222); assay: competition fluorescence polarization; full-length beta-catenin, 5FAM-TCF4(10-53) probe as competitor
Target sequence in this assay (P35222 whole entry, one chain of several): as above

[12] = biological target: full-length beta-Catenin (Uniprot ID P35222) (Homo sapiens (Human)) (UniProt P35222); assay: fluorescence polarization competition; full-length beta-catenin, competitor 5FAM-TCF4(10-53) probe
Target sequence in this assay (P35222 whole entry, one chain of several): as above

[13] = biological target: full-length beta-Catenin (Uniprot ID P35222) (Homo sapiens (Human)) (UniProt P35222); assay: AlphaScreen competition vs biotin-TCF4(10-53) on full-length beta-catenin
Target sequence in this assay (P35222 whole entry, one chain of several): as above

Sequence of Bcat-Halo (P35222 whole entry): as the sequence (P35222 whole entry, one chain of several) above
Sequence of B-cat-Halo (beta-catenin HaloTag NanoBRET construct expressed in HEK293 cells) (P35222 whole entry): as the sequence (P35222 whole entry, one chain of several) above

In the case of Ac-[αAllylPro]D[tBuAla][B5(4)]D[TfeGA]AAFT[PyrS2″][Phe(2-Cl)][Bta][Thr(ol)] (staple 1-4, 4-11) [I-1241], the EC50 [1] is reported as 19 nM, the IC50 [2] is reported as 15700 nM and the IC50 [3] is reported as 19 nM.

In the case of Ac-[αAllylPro]D[tBuAla][B5(4)]D[TfeGA]AAFT[PyrS2″][Phe(2-Cl)][Bta]-Alaol (staple 1-4, 4-11) [I-1242], the EC50 [1] is reported as 30 nM, the IC50 [2] is reported as > 20000 nM and the IC50 [3] is reported as 30 nM.

Work on [αAllylPro]D[tBuAla][B5(4)]DDAAFF[PyrS2″][2Thi][Bta]Q-NH2 (staple 1-4, 4-11) [I-1345] yielded an IC50 (Bcat-Halo [4]) of 4700 nM, an EC50 [5] of 15 nM and an IC50 [6] of 15 nM. The IC50 (Bcat-Halo [7]) was 4700 nM.

B1: I-1356 (peptide)
peptide: [αAllylPro]D[tBuAla][B5(4)]DDAAFS[PyrS2″]F[Bta]S-NH2
modifications: staple 1-4, 4-11; not fully specified; printed as PL3-Asp-Npg-B5-Asp-Asp-Ala-Ala-Phe-Ser-PyrS2-Phe-BztA-Ser-NH2
B1 was tested, and the IC50 [8] was 23 nM, the EC50 [5] was 23 nM and the IC50 (Bcat-Halo [7]) was > 20000 nM.

[αAllylPro]D[tBuAla][B5(4)]DDAAFS[PyrS2″]F[Bta]S-NH2 (staple 1-4, 4-11) [I-1357] showed an IC50 [8] of 10 nM, an EC50 [5] of 10 nM and an IC50 (Bcat-Halo [7]) of 33600 nM.

Binder Ac-[αAllylPro]D[tBuAla][B5(4)]DDAAF[Phe(2-CF3)][PyrS2][3Thi][Bta]Q-NH2 (staple 1-4, 4-11) [I-1363] has an IC50 [8] of 9 nM, an EC50 [5] of 9 nM and an IC50 (Bcat-Halo [7]) of 5500 nM.

Binder Ac-[αAllylPro]D[Abu][B5(4)]DEAAFQ[S8]F[Bta]H-NH2 (staple 1-4, 4-11) [I-571] has an EC50 [9] of 32 nM, an IC50 (Bcat-Halo [10]) of 15600 nM and an IC50 [11] of 32 nM.

With Ac-[αAllylPro]D[Abu][B5]DDAAFN[S8]F[Bta]H-NH2 (staple 1-4, 4-11) [I-574] the EC50 [12] was 36 nM, the IC50 (Bcat-Halo [10]) was > 20000 nM and the IC50 [11] was 36 nM.

With Ac-[αAllylPro]D[tBuAla][B5(5)]DDAAFN[S8]F[Bta]H-NH2 (staple 1-4, 4-11) [I-582] the EC50 [12] was 17.5 nM, the IC50 (Bcat-Halo [10]) was 15800 nM and the IC50 [11] was 17.5 nM.

Binder Ac-[αAllylPro]DA[B5(4)]D[2Nal]AAFQ[S8]F[Bta]A-NH2 (staple 1-4, 4-11) [I-296] has an EC50 [13] of 1910 nM.

Ac-[αAllylPro]DA[B5(4)]D[2Nal]AAFV[S8]F[Bta]Q-NH2 (staple 1-4, 4-11) [I-297] showed an EC50 [13] of 5810 nM.

Ac-[αAllylPro]DA[B5(4)]D[2Nal]AAFS[S8]F[Bta]Q-NH2 (staple 1-4, 4-11) [I-298] gave an EC50 [13] of 3860 nM.
